Experimental data as given in US20250027068.

Biological target: pooled human IgG (human IgG1, 2, 3 and 4)

B1: PRT-420 (protein)
chain: MTITSVWTKGVTPPTPEDFRYNNEDVLHAPYVANQGWYDITKTFDGKDNLLCGAATAGNMLHWWFDQNKEEIERYLKKHPEKQKIIFNNQEWFDVKAAIDTKDSQTNSKLFNYFRDKAFPNLSARQLGVMPDLVLDMFINGYYLNLGKTQSTDVNRPYQDKDKRGGIFDAVFTRGDQTTLLTARHDLKNKGLNEISDLIKQELTEGKALALSHTYANVRINHVINLWGADFDAEGNLIAIYVTDSDANASIGMKKYFVGVNANGKVAISAKKIEGDNIGAQVLGLFTLSTGQDIWQKLS
Protein B1 has an Enzyme Activity Endpoint Assay (purified): Fab′2 of 515 ng/µL, an Enzyme Activity Endpoint Assay (purified): Fc of 300 ng/µL and an Enzyme Activity Endpoint Assay (purified): IgG of 125 ng/µL. It also gave an Enzyme Activity Endpoint Assay (purified): scIgG of 0 ng/µL.

B2: PRT-421 (protein)
chain: MTITSVWTKGVTPPTPEDFRYNNEDVLHAPYVANQGWYDITKTFDGKDNLLCGAATAGNMLHWWFDQNKEEIERYLKKHPEKQKIIFNNQELFDVKAAIDTKDSQTNSKLFDYFRDKAFPNLSARQLGVMPDLVLDMFINGYYLNLGKTQSTDVNRPYQDKDKRGGIFDAVFTRGDQTTLLTARHDLKNKGLNEISDLIKQELTEGKALALSHTYANVRINHVINLWGADFDAEGNLIAIYVTDSDANASIGMKKYFVGVNANGKVAISAKKIEGDNIGAQVLGLFTLSTGQDIWQKLS
Work on B2 yielded an Enzyme Activity Endpoint Assay (purified): Fab′2 of 612 ng/µL, an Enzyme Activity Endpoint Assay (purified): Fc of 340 ng/µL and an Enzyme Activity Endpoint Assay (purified): IgG of 71 ng/µL. For the same protein, the Enzyme Activity Endpoint Assay (purified): scIgG was 0 ng/µL.

B3: PRT-429 (protein)
chain: MTITSVWTKGVTPPTPEDFRYNNEDVLHAPYVANQGWYDITKTFDGKDNLLCGAATAGNMLHWWFDQNKEEIERYLKKHPEKQKIIFNNQELFDVKAAIDTKDSQTNSKLFNYFRDKAFPNLSARQLGVMPDLVLDMFINGYYLNLGKTQSTDVNRPYQDKDKRGGIFDAVFTRGDQTTLLTARHDLKNKGLNEISDLIKQELTEGKALALSHTYANVRINHVINLWGADFDAEGNLIAIYVTDSDARASIGMKKYFVGVNANGKVAISAKKIEGDNIGAQVLGLFTLSTGQDIWQKLS
B3 gave an Enzyme Activity Endpoint Assay (purified): Fab′2 of 528 ng/µL, an Enzyme Activity Endpoint Assay (purified): Fc of 348 ng/µL and an Enzyme Activity Endpoint Assay (purified): IgG of 57 ng/µL. It also gave an Enzyme Activity Endpoint Assay (purified): scIgG of 171 ng/µL.

B4: PRT-428 (protein)
chain: MTITSVWTKGVTPPTPEDFRYNNEDVLHAPYVANQGWYDITKTFDGKDNLLCGAATAGNMLHWWFDQNKEEIERYLKKHPEKQKIIFNNQELFDVKAAIDTKDSQTNSKLFNYFRDKAFPNLSARQLGVMPDLVLDMFINGYYLNLGKTQSTDVNRPYQDKDKRGGIFDAVFTRGDQTTLLTARHDLKNKGLNEISDLIKQELTEGKALALSHTYANVRINHVINLWGADFDAEGNLIAIYVTDSDTNASIGMKKYFVGVNANGKVAISAKKIEGDNIGAQVLGLFTLSTGQDIWQKLS
In the case of B4, the Enzyme Activity Endpoint Assay (purified): Fab′2 is reported as 505 ng/µL, the Enzyme Activity Endpoint Assay (purified): Fc is reported as 336 ng/µL and the Enzyme Activity Endpoint Assay (purified): IgG is reported as 90 ng/µL. The Enzyme Activity Endpoint Assay (purified): scIgG was 119 ng/µL.

B5: PRT-413 (protein)
chain: MTITSVWTKGVTPPTPEDFRENNEDVLHAPYVANQGWYDITKTFDGKDNLLCGAATAGNMLHWWFDQNKEEIERYLKKHPEKQKIIFNNQELFDVKAAIDTKDSQTNSKLFNYFRDKAFPNLSARQLGVMPDLVLDMFINGYYLNLGKTQSTDVNRPYQDKDKRGGIFDAVFTRGDQTTLLTARHDLKNKGLNEISDLIKQELTEGKALALSHTYANVRINHVINLWGADFDAEGNLIAIYVTDSDANASIGMKKYFVGVNANGKVAISAKKIEGDNIGAQVLGLFTLSTGQDIWQKLS
Work on B5 yielded an Enzyme Activity Endpoint Assay (purified): Fab′2 of 485 ng/µL, an Enzyme Activity Endpoint Assay (purified): Fc of 347 ng/µL and an Enzyme Activity Endpoint Assay (purified): IgG of 14 ng/µL. For the same protein, the Enzyme Activity Endpoint Assay (purified): scIgG was 152 ng/µL.

B6: PRT-381 (protein)
chain: MVTSVWTKGVTPPTNFTYGEDVLHAPYVANQGWYDITKTFNGKDDLLCGAATAGNMLHWWFDQNKEQIENYLKKHPEKQKINFNGEQMFDVKEAIDTKDSQLDSKLFEYFKEKAFPYLSTKHLGVFPDHVIDMFINGYRLSLTNHGPTPVKRGSKDPRGGIFDAVFTRGDQSKLLTNRHDFKEKTLKEISDLIKQELTEGKALGISHTYANVRINHVINLWGADFDAEGNLEAIYVTDSDSNPSIGMKKYFVGVNSNGKVAISAKEIEEDNIGAQVLGLFTLSTGQDIWNQTN
B6 showed an Enzyme Activity Endpoint Assay (purified): Fab′2 of 486 ng/µL, an Enzyme Activity Endpoint Assay (purified): Fc of 334 ng/µL and an Enzyme Activity Endpoint Assay (purified): IgG of 0 ng/µL. For the same protein, the Enzyme Activity Endpoint Assay (purified): scIgG was 194 ng/µL.

B7: PRT-389 (protein)
chain: MVTSVWTKGVTPPTNFTYGEDVLHAPYVANQGWYDITKTFNGKDDLLCGAATAGNMLHWWFDQNKEQIENYLKKHPEKQKINFKGEQMFDVKEAIDTKDSQLDSKLFEYFKEKAFPYLSTKHLGVFPDHVIDMFINGYRLSLTNHGPTPVKRGSKDPRGGIFDAVFTRGDQSKLLTNRHDFKEKTLKEISDLIKQELTEGKALGISHTYANVRINHVINLWGADFDAEGNLEAIYVTDSDSNASIGMKKYFVGVNSNGKVAISAKEIEEDNIGAQVLGLFTLSTGQDIWNQTN
Protein B7 has an Enzyme Activity Endpoint Assay (purified): Fab′2 of 479 ng/µL, an Enzyme Activity Endpoint Assay (purified): Fc of 340 ng/µL and an Enzyme Activity Endpoint Assay (purified): IgG of 32 ng/µL. For the same protein, the Enzyme Activity Endpoint Assay (purified): scIgG was 219 ng/µL.

B8: PRT-390 (protein)
chain: MVTSVWTKGVTPPTNFTYGEDVLHAPYVANQGWYDITKTFNGKDDLLCGAATAGNMLHWWFDQNKEQIENYLKKHPEKQKINFNGEQLFDVKEAIDTKDSQLDSKLFEYFKEKAFPYLSTKHLGVFPDHVIDMFINGYRLSLTNHGPTPVKRGSKDPRGGIFDAVFTRGDQSKLLTNRHDFKEKTLKEISDLIKQELTEGKALGISHTYANVRINHVINLWGADFDAEGNLEAIYVTDSDSNASIGMKKYFVGVNSNGKVAISAKEIEEDNIGAQVLGLFTLSTGQDIWNQTN
B8 gave an Enzyme Activity Endpoint Assay (purified): Fab′2 of 578 ng/µL, an Enzyme Activity Endpoint Assay (purified): Fc of 371 ng/µL and an Enzyme Activity Endpoint Assay (purified): IgG of 0 ng/µL. The Enzyme Activity Endpoint Assay (purified): scIgG was 227 ng/µL, the Enzyme Activity Endpoint Assay: Fab′2 was 578 ng/µL and the Enzyme Activity Endpoint Assay: Fc was 371 ng/µL. The Enzyme Activity Endpoint Assay: IgG was 0 ng/µL and the Enzyme Activity Endpoint Assay: scIgG was 227 ng/µL.

B9: PRT-382 (protein)
chain: MVTSVWTKGVTPPTNFTYGEDVLHAPYVANQGWYDITKTFNGKDDLLCGAATAGNMLHWWFDQNKEQIENYLKKHPEKQKINFNGEQMFDVKEAIDTKDSQLDSKLFEYFKEKAFPYLSTKHLGVFPDHVIDMFINGYRLSLTNHGPTPVKRGSKDPRGGIFDAVFTRGDQSKLLTNRHDFKEKTLKEISDLIKQELTEGKALGISHTYANVRINHVINLWGADFDAEGNLEAIYVTDSDSNASIGMKKYVVGVNSNGKVAISAKEIEEDNIGAQVLGLFTLSTGQDIWNQTN
For B9, the Enzyme Activity Endpoint Assay (purified): Fab′2 was 585 ng/µL, the Enzyme Activity Endpoint Assay (purified): Fc was 380 ng/µL and the Enzyme Activity Endpoint Assay (purified): IgG was 0 ng/µL. It also gave an Enzyme Activity Endpoint Assay (purified): scIgG of 226 ng/µL.

B10: PRT-397 (protein)
chain: MVTSVWTKGVTPPADFTQGEDVFHAPYVANQGWYDITKTFNGKDDLLCGAATAGNMLHWWFDQNKEYIEAYLKKHPEKQKIMFGDQELLDVRKAINTKGSQKNSELFNYFRDKAFPNLSARRLGVMPDLVLDMFINGYYLNVTKTQTTDVNRTYQEKDKRGGIFDAVFTRGDQSKLLTSRHDFKEKGLKEISDLIKQELTEGKALGLSHTYANVGINHVINLWGADFDSDGNLKAIYVTDSDSNASIGMKKYFVGVNSAGKVAISAKEIKEDNIGAQVLGLFTLSTGQDIWNQTN
B10 was tested, and the Enzyme Activity Endpoint Assay (purified): Fab′2 was 102 ng/µL, the Enzyme Activity Endpoint Assay (purified): Fc was 243 ng/µL and the Enzyme Activity Endpoint Assay (purified): IgG was 93 ng/µL. For the same protein, the Enzyme Activity Endpoint Assay (purified): scIgG was 498 ng/µL.

B11: PRT-398 (protein)
chain: MVTSVWTKGVTPPADFTQGEDVFHAPYVANQGWYDITKTFNGKDDLLCGAATAGNMLHWWFDQNKEYIEAYLKKHPEKQKIMFGDQELLDVRKAINTKGSQKNSELFNYFRDKAFPNLSARRLGVMPDLVLDMFINGYYLNVTKTQTTDVNRTYQEKDKRGGIFDAVFTRGDQSKLLTSRHDFKEKGLKEISDLIKQELTEGKALGLSHTYANVRINHVINLWGADFDSDGNLKAIYVTDSDSNASIGMKKYDVGVNSAGKVAISAKEIKEDNIGAQVLGLFTLSTGQDIWNQTN
For B11, the Enzyme Activity Endpoint Assay (purified): Fab′2 was 555 ng/µL, the Enzyme Activity Endpoint Assay (purified): Fc was 370 ng/µL and the Enzyme Activity Endpoint Assay (purified): IgG was 0 ng/µL. For the same protein, the Enzyme Activity Endpoint Assay (purified): scIgG was 196 ng/µL, the Enzyme Activity Endpoint Assay: Fab′2 was 555 ng/µL and the Enzyme Activity Endpoint Assay: Fc was 370 ng/µL. The Enzyme Activity Endpoint Assay: IgG was 0 ng/µL and the Enzyme Activity Endpoint Assay: scIgG was 196 ng/µL.

B12: PRT-406 (protein)
chain: MVTSVWTKGVTPPADFTQGEDVFHAPYVANQGWYDITKTFNRKDDLLCGAATAGNMLHWWFDQNKEYIEAYLKKHPEKQKIMFGDQELLDVRKAINTKGSQKNSELFNYFRDKAFPNLSARRLGVMPDLVLDMFINGYYLNVTKTQTTDVNRTYQEKDKRGGIFDAVFTRGDQSKLLTSRHDFKEKGLKEISDLIKQELTEGKALGLSHTYANVRINHVINLWGADFDSDGNLKAIYVTDSDSNASIGMKKYFVGVNSAGKVAISAKEIKEDNIGAQVLGLFTLSTGQDIWNQTN
For B12, the Enzyme Activity Endpoint Assay (purified): Fab′2 was 435 ng/µL, the Enzyme Activity Endpoint Assay (purified): Fc was 299 ng/µL and the Enzyme Activity Endpoint Assay (purified): IgG was 135 ng/µL. For the same protein, the Enzyme Activity Endpoint Assay (purified): scIgG was 108 ng/µL, the Enzyme Activity Endpoint Assay: Fab′2 was 435 ng/µL and the Enzyme Activity Endpoint Assay: Fc was 299 ng/µL. For the same protein, the Enzyme Activity Endpoint Assay: IgG was 135 ng/µL and the Enzyme Activity Endpoint Assay: scIgG was 108 ng/µL.

B13: PRT-405 (protein)
chain: MVTSVWTKGVTPPADFTQGEDVFHAPYVANQGWYDITKTFNGKDDLLCGAATAGNMLHWWFDQNKEYIEAYLKKHPEKQKIMFGDQELLDVRKAINTKGSQKNSELFNYFRDKAFPNLSARRLGVMPDLVLDMFINGYYLNVTKTQTTDVNRTYQEKDKRGGIFDAVFTRGDQSKLLTSRHDFKEKGLKEISDLIKQELTEGKALGLSHTYANVRINHVINLWGADFDSDGNLKAIYVTDSDSNASIGMKKYGVGVNSAGKVAISAKEIKEDNIGAQVLGLFTLSTGQDIWNQTN
Protein B13 has an Enzyme Activity Endpoint Assay (purified): Fab′2 of 86 ng/µL, an Enzyme Activity Endpoint Assay (purified): Fc of 218 ng/µL and an Enzyme Activity Endpoint Assay (purified): IgG of 406 ng/µL. The Enzyme Activity Endpoint Assay (purified): scIgG was 558 ng/µL.
